From paper PMC4829482

Legend:
[1] = system: CC(C)=CCC/C(C)=C/CC/C(C)=C/CO[P@@](=O)(O)OP(=O)(O)O; test: steady-state radiochemical kinetics; format: biochemical, Streptomyces citricolor; conditions: Mg2+ active site
purified protein = substrate: CC(C)=CCC/C(C)=C/CC/C(C)=C/CO[P@@](=O)(O)OP(=O)(O)O; test: purified protein; conditions: Mg2+ active site

| Molecule | Km [1] [µM] | kcat [1] [s⁻¹] | Km (purified protein) [µM] | kcat (purified protein) [s⁻¹] | kcat/Km (purified protein) [M⁻¹ s⁻¹] |
| --- | --- | --- | --- | --- | --- |
| germacradien-4-ol synthase (GdolS) (Streptomyces citricolor; Y303F) | 0.66 ± 0.12 | 0.014 ± 0.006 | – | – | – |
| germacradien-4-ol synthase (GdolS) (Streptomyces citricolor; E307Q) | 2.24 ± 0.16 | 0.013 ± 0.0004 | – | – | – |
| germacradien-4-ol synthase (GdolS) (Streptomyces citricolor; D84E) | 0.92 ± 0.09 | 0.009 ± 0.0003 | – | – | – |
| germacradien-4-ol synthase (GdolS) (Streptomyces citricolor; D81E) | 0.82 ± 0.11 | 0.01 ± 0.0006 | – | – | – |
| germacradien-4-ol synthase (GdolS) (Streptomyces citricolor) (protein) MSDDTSLELPFTHRRNPHQTEAADRHLEWLQRHRELAAVVSGSTYTGWDITELASLVYPESSAEDLALAADLMGFYFLFDDQFDSPLGRRPEQVALICERLSAIAHGTLTAVTSPSERAFADLWRRITLGMTDRWRARAACNWEYYFACHPAEAAGRTIGQPPDREGYLTLRRGTAAMESIFDMIERLGHFEVPQHVMHHPLFRQLRQLAADIPSFTNDVRSFAQESERGDVANLVMIVRRDRCCSTEEACAVVWDEAQRMADRFCDLRDQLPDACRSMSLDPAQRLAAERYADGMALWLAGYLHWESHTRRYHHG | – | – | 1.07 ± 0.13 | 0.079 | 73800 |
